Consider five molecules from patent US20180238866A1 (University of California, published 2018).

Where no end group is shown, it is not given here.

B3: secreted phospholipase A2 type IIA (sPLA2-IIA), wild type, recombinant (enzyme)
chain: NLVNFHRMIKLTTGKEAALSYGFYGCHCGVGGRGSPKDATDRCCVTHDCCYKRLEKRGCGTKFLSYKFSNSGSRITCAKQDSCRSQLCECDKAAATCFARNKTTYNKKYQYYSNKHCRGSTPRC
modifications: FITC-labeled in the flow cytometry binding assays of FIG. 7a-b ; FITC-labelled in the flow cytometry binding assays (FIG. 7a-b).
notes: PDB 1DCY was used for it in the docking simulation; also called WT sPLA2-IIA; sPLA-IIA

In experiment [1] the target is T1, integrin α5β1 on K562 cells and U937 cells (UniProt P08648 42-1049; P05556 21-798, limits assumed).
T1 construct: whole, on cells
Briefly: flow cytometry, FITC-FN8-11 on U937 and K562 cells, with sPLA2-IIA. For orientation: In flow cytometry, cells or beads pass a laser one at a time.
Protocol: Bound FITC was measured using flow cytometry.
(§1) The cells were washed with PBS/0.02% BSA and analyzed by FACSCalibur (Becton Dickinson, Mountain View, Calif.).

The target of experiment [2] is B3. Kind of experiment: ELISA-type: GST-tagged peptide on immobilized sPLA2-IIA, anti-GST-HRP. Background: An ELISA detects its analyte on a solid surface through an enzyme-linked reagent.
For experiment [3], the target named is T1, integrin α5β1 on K562 cells and U937 …. Kind of experiment: flow cytometry, FITC-sPLA2-IIA (10 µg/ml) on K562 cells.
Protocol: Bound FITC was measured using flow cytometry. Data are shown as means±SEM of MFI of three independent experiments. c. […] Data are shown as means±SEM of % adhesion of three independent experiments. d-f. […] Data are shown as means±SEM of MFI of three independent experiments. […] Data are shown as means±SEM of MFI of three independent experiments, j-l. […] Data are shown as means±SEM of MFI of three independent experiments.
In a further experiment the target is T2, control GST (UniProt P08515 1-218 = GST).
T2 construct: Control protein
Kind of experiment: ELISA-type: GST-tagged protein on immobilized sPLA2-IIA, anti-GST-HRP.

For experiment [4], the target named is T3, integrin αvβ3 on the cell surface of U937 cells and of K562 cells that express human integrin αvβ3 (human, UniProt P06756 31-1048; P05106 27-788).
T3 construct: whole, on cells; Two cell types carry the same human integrin; also called αvβ3 on U937; αvβ3-K562
Briefly: flow cytometry, FITC-γC399tr on U937 and αvβ3-K562 cells with sPLA2-IIA (20 µg/ml) and Cmpd21.
Description: as §1

The target in experiment [5] is T4, recombinant soluble integrin αvβ3 (UniProt P06756 31-992; P05106 27-718, limits assumed).
T4 construct: also called soluble αvβ3
Briefly: ELISA-type: soluble αvβ3 (5 µg/ml) on immobilized γC399tr, 1 mM Ca2+, with sPLA2-IIA; bound αvβ3 detected with anti-β3 mAb AV-10.
Protocol: Remaining protein binding sites were blocked by incubating with PBS/0.1% BSA for 30 min at room temperature.

For experiment [6], the target named is T3, integrin αvβ3 on the cell surface of …. Kind of experiment: flow cytometry, FITC-labeled ADAM15 on U937 and αvβ3-K562 cells, with sPLA2-IIA (20 µg/ml).
Description: Data are shown as means (MFI)±SEM of three independent experiments.
as §1

T1 sequence (P08648 42-1049 limits assumed, chain 1 of 2): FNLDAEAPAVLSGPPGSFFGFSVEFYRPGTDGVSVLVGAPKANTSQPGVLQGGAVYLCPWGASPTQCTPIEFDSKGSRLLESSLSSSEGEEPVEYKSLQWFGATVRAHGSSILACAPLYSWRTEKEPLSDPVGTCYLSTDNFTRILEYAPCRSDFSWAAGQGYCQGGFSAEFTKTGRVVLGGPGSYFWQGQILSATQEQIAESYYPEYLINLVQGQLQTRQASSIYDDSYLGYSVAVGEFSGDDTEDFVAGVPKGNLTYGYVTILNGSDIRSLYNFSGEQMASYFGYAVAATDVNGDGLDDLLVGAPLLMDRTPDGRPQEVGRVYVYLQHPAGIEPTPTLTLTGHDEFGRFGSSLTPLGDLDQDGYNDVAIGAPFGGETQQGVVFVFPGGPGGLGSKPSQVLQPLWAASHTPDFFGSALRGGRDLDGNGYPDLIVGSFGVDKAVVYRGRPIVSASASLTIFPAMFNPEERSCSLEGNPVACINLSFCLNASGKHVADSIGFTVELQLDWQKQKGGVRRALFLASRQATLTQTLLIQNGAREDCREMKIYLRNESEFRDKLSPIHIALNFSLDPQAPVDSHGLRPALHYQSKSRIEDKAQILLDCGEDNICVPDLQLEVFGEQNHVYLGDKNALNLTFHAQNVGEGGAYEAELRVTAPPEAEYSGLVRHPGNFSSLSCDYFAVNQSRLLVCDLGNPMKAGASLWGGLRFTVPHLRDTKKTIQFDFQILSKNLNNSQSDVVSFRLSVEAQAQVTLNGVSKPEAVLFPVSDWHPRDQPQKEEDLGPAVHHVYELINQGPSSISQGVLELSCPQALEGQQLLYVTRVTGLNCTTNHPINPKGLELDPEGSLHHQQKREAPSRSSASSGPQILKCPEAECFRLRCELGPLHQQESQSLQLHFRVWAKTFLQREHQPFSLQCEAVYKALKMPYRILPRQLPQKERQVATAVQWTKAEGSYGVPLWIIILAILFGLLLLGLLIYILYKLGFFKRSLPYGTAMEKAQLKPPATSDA
T1 sequence (P05556 21-798 limits assumed, chain 2 of 2): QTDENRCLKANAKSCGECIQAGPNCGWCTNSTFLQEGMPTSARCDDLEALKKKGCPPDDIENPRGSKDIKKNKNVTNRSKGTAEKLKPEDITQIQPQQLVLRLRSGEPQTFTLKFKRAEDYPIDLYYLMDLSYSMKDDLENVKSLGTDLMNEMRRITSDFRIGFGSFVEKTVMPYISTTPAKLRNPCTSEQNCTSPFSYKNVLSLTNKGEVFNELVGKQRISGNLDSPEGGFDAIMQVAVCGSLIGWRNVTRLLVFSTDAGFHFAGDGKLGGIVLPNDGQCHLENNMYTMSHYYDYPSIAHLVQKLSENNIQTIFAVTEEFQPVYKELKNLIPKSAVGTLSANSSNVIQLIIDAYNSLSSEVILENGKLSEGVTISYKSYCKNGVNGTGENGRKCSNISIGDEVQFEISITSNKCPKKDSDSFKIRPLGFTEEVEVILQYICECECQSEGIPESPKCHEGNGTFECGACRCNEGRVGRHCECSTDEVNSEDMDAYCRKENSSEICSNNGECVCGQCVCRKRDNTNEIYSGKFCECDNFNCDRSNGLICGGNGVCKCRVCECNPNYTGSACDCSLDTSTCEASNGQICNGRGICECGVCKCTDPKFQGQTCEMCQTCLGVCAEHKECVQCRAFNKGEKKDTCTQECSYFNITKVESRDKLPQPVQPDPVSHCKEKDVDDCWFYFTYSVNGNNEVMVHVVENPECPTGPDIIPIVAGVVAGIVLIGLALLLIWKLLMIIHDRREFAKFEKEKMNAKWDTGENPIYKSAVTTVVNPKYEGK
T3 sequence (P06756 31-1048, chain 1 of 2): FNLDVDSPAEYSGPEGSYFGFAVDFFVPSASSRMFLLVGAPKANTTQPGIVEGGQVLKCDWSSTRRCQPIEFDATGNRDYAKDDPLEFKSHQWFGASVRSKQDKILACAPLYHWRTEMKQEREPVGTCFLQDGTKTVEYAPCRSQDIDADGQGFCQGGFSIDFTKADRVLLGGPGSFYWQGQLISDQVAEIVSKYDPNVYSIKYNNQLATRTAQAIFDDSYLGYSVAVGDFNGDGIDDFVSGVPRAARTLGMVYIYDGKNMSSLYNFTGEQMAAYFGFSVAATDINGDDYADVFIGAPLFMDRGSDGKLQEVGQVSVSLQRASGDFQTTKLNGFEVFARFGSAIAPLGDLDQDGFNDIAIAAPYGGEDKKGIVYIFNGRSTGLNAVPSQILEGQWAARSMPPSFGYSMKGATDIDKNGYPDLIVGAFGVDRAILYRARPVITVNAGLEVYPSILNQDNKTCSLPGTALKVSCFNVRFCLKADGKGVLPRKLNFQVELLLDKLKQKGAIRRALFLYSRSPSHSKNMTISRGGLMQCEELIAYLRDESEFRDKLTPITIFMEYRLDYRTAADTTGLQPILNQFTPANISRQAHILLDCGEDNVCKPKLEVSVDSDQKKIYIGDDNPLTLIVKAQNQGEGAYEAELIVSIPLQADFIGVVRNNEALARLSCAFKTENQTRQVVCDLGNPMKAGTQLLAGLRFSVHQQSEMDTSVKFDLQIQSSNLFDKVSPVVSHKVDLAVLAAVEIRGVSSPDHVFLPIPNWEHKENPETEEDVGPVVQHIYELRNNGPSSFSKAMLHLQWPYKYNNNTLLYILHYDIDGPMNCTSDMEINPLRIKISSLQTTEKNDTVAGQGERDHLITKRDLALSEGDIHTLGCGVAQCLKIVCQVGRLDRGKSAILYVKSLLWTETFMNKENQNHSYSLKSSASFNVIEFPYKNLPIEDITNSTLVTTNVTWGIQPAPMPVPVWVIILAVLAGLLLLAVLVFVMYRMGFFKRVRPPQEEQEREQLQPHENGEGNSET
T3 sequence (P05106 27-788, chain 2 of 2): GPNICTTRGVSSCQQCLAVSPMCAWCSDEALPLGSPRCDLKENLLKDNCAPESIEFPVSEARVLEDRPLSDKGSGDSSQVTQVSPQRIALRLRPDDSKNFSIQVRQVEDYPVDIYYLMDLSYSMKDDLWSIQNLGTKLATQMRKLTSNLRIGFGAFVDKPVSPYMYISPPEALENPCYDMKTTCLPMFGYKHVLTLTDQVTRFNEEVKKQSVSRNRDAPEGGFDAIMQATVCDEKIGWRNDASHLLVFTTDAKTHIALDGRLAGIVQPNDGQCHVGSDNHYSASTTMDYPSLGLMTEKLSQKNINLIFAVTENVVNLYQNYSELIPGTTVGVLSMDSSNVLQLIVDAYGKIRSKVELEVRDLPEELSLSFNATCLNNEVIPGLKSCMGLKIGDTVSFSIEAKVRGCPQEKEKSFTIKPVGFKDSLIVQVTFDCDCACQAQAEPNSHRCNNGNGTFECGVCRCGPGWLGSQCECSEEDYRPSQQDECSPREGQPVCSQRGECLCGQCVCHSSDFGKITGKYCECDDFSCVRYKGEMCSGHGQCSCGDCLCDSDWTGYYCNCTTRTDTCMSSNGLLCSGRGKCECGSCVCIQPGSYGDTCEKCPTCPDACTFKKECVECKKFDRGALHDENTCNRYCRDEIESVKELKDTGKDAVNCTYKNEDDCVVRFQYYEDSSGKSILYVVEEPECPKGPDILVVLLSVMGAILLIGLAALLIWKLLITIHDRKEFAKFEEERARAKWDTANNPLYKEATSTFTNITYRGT
T2 sequence (P08515 whole entry): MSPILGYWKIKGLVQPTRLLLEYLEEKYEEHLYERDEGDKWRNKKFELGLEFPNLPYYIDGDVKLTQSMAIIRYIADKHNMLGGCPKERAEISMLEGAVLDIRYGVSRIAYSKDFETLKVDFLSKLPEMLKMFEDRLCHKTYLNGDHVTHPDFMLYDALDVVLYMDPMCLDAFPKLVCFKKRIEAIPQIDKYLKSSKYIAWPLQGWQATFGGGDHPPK
Protocol for control GST: Remaining protein binding sites were blocked by incubating with PBS/0.1% BSA for 30 min at room temperature. After washing with PBS, S2 peptides were added to the wells and incubated in PBS for 2 h at room temperature.

B1: rat fibronectin type III domains 8-11 (FN8-11), GST fusion protein (ligand)
chain: not shown
modifications: FITC-labeled in the flow cytometry assays
notes: domain: Fibronectin type III domains 8-11; also called RGD-containing fibronectin fragment; not shown: glutathione S-transferase (GST) fusion partner
For the molecule B1, the binding result in experiment [1] is on record as “binds”.

B2: scrambled site 2 peptide of β3 (S2-β3scr), GST fusion (peptide)
chain: HHHHHHVHDSHYSGQGAMSDNTNSPQT
modifications: also: GST fusion protein, GST not in chain
notes: Control peptide; also called scrambled S2-β3 peptide; scrambled β3 peptide; not shown: glutathione S-transferase (GST) from vector pGEX-2T
As to B2, in experiment [2], the binding result was “no binding”.
B3: the binding result in experiment [3] is “binds”; with control GST it was “no binding”.

B4: Fibrinogen γ-chain C-terminal domain that lacks residues 400-411 (γC399tr) (ligand, UniProt P02679 177-425, looked up)
chain: KDCQDIANKGAKQSGLYFIKPLKANQQFLVYCEIDGSGNGWTVFQKRLDGSVDFKKNWIQYKEGFGHLSPTGTTEFWLGNEKIHLISTQSAIPYALRVELEDWNGRTSTADYAMFKVGPEADKYRLTYAYFAGGDAGDAFDGFDFGDDPSDKFFTSHNGMQFSTWDNDNDKFEGNCAEQDGSGWWMNKCHAGHLNGVYYQGGTYSKASTPNGYDNGIIWATWKTRWYSMKKTTMKIIPFNRLTIGEGQQ
modifications: FITC-labeled in the flow cytometry assays
notes: domain: Fibrinogen γ-chain C-terminal domain that lacks residues 400-411
On to B4, for which the binding result in experiment [4] and in experiment [5] was “binds” each time.

B5: disintegrin domain of human ADAM15, GST fusion protein (ligand)
chain: not shown
modifications: FITC-labeled in the flow cytometry assays
notes: domain: disintegrin domain; also called ADAM15 disintegrin domain; not shown: glutathione S-transferase (GST) fusion partner
On to B5, for which the binding result in experiment [6] was “binds”.
